This passage reports percent of parent, Kd and response (relative intensity) results from article PMC10776578, “Epstein-Barr virus-driven B cell lymphoma mediated by a direct LMP1-TRAF6 complex” (Nature Communications, 2024).

B1: unnamed (parent)
chain 1: DHQIRELTAKMETQSMYVSELKRTIRTLEDKVAEIEAQQCNGIYIWKIGNFGMHLKCQEEEKPVVIHSPGFYTGKPGYKLCMRLHLQLPTAQRCANYISLFVHTMQGEYDSHLPWPFQGTIRLTILDQSEAPVRQNHEEIMDAKPELLAFQRPTIPRNPKGFGYVTFMHLEALRQRTFIKDDTLLVRCEVSTRFDMGSLRREGFQPRSTDAGV
chain 2: GGGPYAQGEDARMLSLVSKTEIEEDSFRQMPTEDEYMDRPSQ
B2: unnamed (parent)
chain 1: B1 chain 1
chain 2: KKVAKKPTNKAPHPKQEPQEINFPDDLPGSNTAAPVQETLHGCQPVTQEDGKESRISVQERQ
B3: unnamed (parent)
chain 1: B1 chain 1
chain 2: LIWMYYHGQRHSDEHHHDDSLPHPQQATDDSGHESDSNSNEGRHHLLVSGAGDGPPLCSQNLGAPGGGPDNGPQDPDNTDDNGPQDPDNTDDNGPHDPLPQDPDNTDDNGPQDPDNTDDNGPHDPLPHSPSDSAGNDGGPPQLTEEVENKGGDQGPPLMTDGGGGHSHDSGHGGGDPHLPTLLLGSSGSGGDDDDPHGPVQLSYYD
B4: unnamed (parent)
chain 1: MSLLNCENSCGSSQSESDCCVAMASSCSAVTKDDSVGGTASTGNLSSSFMEEIQGYDVEFDPPLESKYECPICLMALREAVQTPCGHRFCKACIIKSIRDAGHKCPVDNEILLENQLFPDNFAKREILSLMVKCPNEGCLHKMELRHLEDHQAHCEFALMDCPQCQRPFQKFHINIHILKDCPRRQVSCDNCAASMAFEDKEIHDQNCPLANVICEYCNTILIREQMPNHYDLDCPTAPIPCTFSTFGCHEKMQRNHLARHLQENTQSHMRMLAQAVHSLSVIPDSGYISEVRNFQETIHQLEGRLVRQDHQIRELTAKMETQSMYVSELKRTIRTLEDKVAEIEAQQCNGIYIWKIGNFGMHLKCQEEEKPVVIHSPGFYTGKPGYKLCMRLHLQLPTAQRCANYISLFVHTMQGEYDSHLPWPFQGTIRLTILDQSEAPVRQNHEEIMDAKPELLAFQRPTIPRNPKGFGYVTFMHLEALRQRTFIKDDTLLVRCEVSTRFDMGSLRREGFQPRSTDAGV
chain 2: MEHDLERGPPGPRRPPRGPPLSSSLGLALLLLLLALLFWLYIVMSDWTGGALLVLYSFALMLIIIILIIFIFRRDLLCPLGALCILLLMITLLLIALWNLHGQALFLGIVLFIFGCLLVLGIWIYLLEMLWRLGATIWQLLAFFLAFFLDLILLIIALYLQQNWWTLLVDLLWLLLFLAILIWMYYHGQRHSDEHHHDDSLPHPQQATDDSGHESDSNSNEGRHHLLVSGAGDGPPLCSQNLGAPGGGPDNGPQDPDNTDDNGPQDPDNTDDNGPHDPLPQDPDNTDDNGPQDPDNTDDNGPHDPLPHSPSDSAGNDGGPPQLTEEVENKGGDQGPPLMTDGGGGHSHDSGHGGGDPHLPTLLLGSSGSGGDDDDPHGPVQLSYYD

Variants of B1 are the subject of the first test. The experiment in a line: AlphaScreen. The conditions noted are these: with partner chain of the complex shown; parent: 100; read off a plot.
Regarding chain 1 F162A, the percent of parent came out at 1%.

Consider chain 1 R83A, for which the percent of parent came to 1%.

Staying with this test, now noted: with partner chain of the complex shown.
Regarding chain 2 E33Q, the Kd amounted to 15.6 nM.

Variants of B2 are the subject of another test. The experiment in a line: AlphaScreen. The conditions noted are these: with partner chain of the complex shown; parent: 100; read off a plot. For orientation: Bead proximity is the source of the signal in Alpha formats.
Regarding chain 1 Y164A, the percent of parent is 1%. chain 1 K160A: the percent of parent came to 90%. The same measure, in the same setting: the figure for chain 1 F162A is 1%; for chain 1 R83A it is 85%.

The variants in another test derive from B3. As to the kind of experiment: AlphaScreen. The conditions noted are these: with partner chain of the complex shown; parent: 100; read off a plot.
As for chain 1 K160A, the percent of parent turned out to be 100%. Turning to chain 1 R83A, the percent of parent turned out to be 4%. On the same count and under the same terms, the figure for chain 1 F162A is 5%.

The same test, now with this note: with partner chain of the complex shown; 100 nM His-TRAF6; parent: 100; read off a plot.
Take chain 2 V200A: the percent of parent was 15%.

On to chain 2 P24A Q26A T28A, for which the percent of parent stood at 83%. The same measure, in the same setting: the figure for chain 2 Y204A is 11%; for chain 2 Q201A it is 7%.

In the case of chain 2 P199A, the percent of parent is 18%. On to chain 2 L202A, for which the percent of parent was 100%. Still for that read-out and setting: the figure for chain 2 G198A is 75%; for chain 2 Y205A it is 47%; for chain 2 S203A it is 94%.

Still in this test, the particulars now being: with partner chain of the complex shown; 300 nM His-TRAF6; parent: 100; read off a plot.
Regarding chain 2 V200A, the percent of parent worked out at 15%. On the same count and under the same terms, the same measure for chain 2 P24A Q26A T28A: 98%; for chain 2 Y204A: 10%; for chain 2 Q201A: 6%.

Turning to chain 2 P199A, the percent of parent was found to be 19%.

With chain 2 L202A, the percent of parent is 98%. Still for that read-out and setting: the same measure for chain 2 G198A: 84%; for chain 2 Y205A: 65%. For the variant chain 2 S203A, the percent of parent came out at 88%.

The same test, now with this note: with partner chain of the complex shown; 1000 nM His-TRAF6; parent: 100; read off a plot.
As to chain 2 V200A, the percent of parent is 14%. For the variant chain 2 P24A Q26A T28A, the percent of parent came out at 92%. With chain 2 Y204A, the percent of parent worked out at 9%. The same measure, in the same setting: the same measure for chain 2 Q201A: 4%.

Take chain 2 P199A: the percent of parent was found to be 21%. Regarding chain 2 L202A, the percent of parent is 98%. On the same count and under the same terms, the same measure for chain 2 G198A: 96%; for chain 2 Y205A: 84%. Same read-out and setting: the same measure for chain 2 S203A: 90%.

Staying with this test, now noted: with partner chain of the complex shown.
For chain 2 Y204F, the Kd amounted to 21.7 nM.

In the next test the parent is B4. The experiment in a line: co-immunoprecipitation, quantified immunoblot. The conditions noted are these: with partner chain of the complex shown; HEK293 cells; parent: 1.3e+07; read off a plot. Background: A western blot detects proteins with antibodies after separation by electrophoresis.
Turning to chain 1 F471A, the response (relative intensity) is 6e+06. With chain 1 K469A, the response (relative intensity) is 1.8e+07.

Consider chain 1 R392A, for which the response (relative intensity) is 2.5e+06.

In the case of chain 1 Y473A, the response (relative intensity) came to 5.5e+06.

The Kd is the concentration at which binding is half-saturated.
